B1: Twister Ribozyme (parent)
chain: AACACUGCCAAUGCCGGUCCCAAGCCCGGAUAAAAGUGGAGGGGGCGG

The data set covers variants of B1. Nature of the data set: self-cleavage, relative activity (ratio to wild type); higher = more cleavage; co-transcriptional.
On to AACACUGCCAAUGCCGGUCCCAAGUCCGGACAAAAGUGGAGGGGGCGG [C25U U31C], for which the self-cleavage worked out at 0.61.
The value for AACACUUCCAAUGCCGGUCCCAAGCCCGGAUAAUAGUGGAGGGGGCGG [G7U A34U] was 0.0892; that for CACACUGCCAAUGCCGGUCCCAAGCCCGGAUAAAAGUGGCGGGGGCGG [A1C A40C] was 0.186; that for AACACUGCCAAUGCCGGGCCCAAGCCCGGUUAAAAGUGGAGGGGGCGG [U18G A30U] was 0.0738.
For AACACUUCCAAUGCCGGUCCCAAGCCCGGAUAAAAGUGGAGAGGGCGG [G7U G42A] the value was 0.0796.
For AACACUGCCAAUGCCUAUCCCAAGCCCGGAUAAAAGUGGAGGGGGCGG [G16U G17A] the value was 0.0957; for AACACUGCCAAUGCCGGUGCCAAGCCCGGAUAAAAGUGGAGGGGACGG [C19G G45A], 0.321.
On to AACACUGCCAAUGCCGGUCCCAAGCCCGGAUAAAAGUGGAGGUGCCGG [G43U G45C], for which the self-cleavage came out at 0.271.
The value for AACACUGCCAAUGCCGGUCCCAAGCUCGGAUAAAAGCGGAGGGGGCGG [C26U U37C] was 0.116.
For AACACUGCCAAUGCCGGUCCGAAGCCCGGAUAAAAGUGGCGGGGGCGG [C21G A40C] the value was 0.0546; for AACACUGCCAAUGCCUGUCCCAAGCCCGGAUAAAAGUGGAGGGCGCGG [G16U G44C], 1.05.
In the case of AACACUGCCAAUGCCGGUCGCAAGCCCGGAUAAAAGUGGAGGGGGGGG [C20G C46G], the self-cleavage is 0.126.
With AACACUGCCAAUGCCGGUCCCAUGCCCGGAUAAAAGUGGAGGGGGCGG [A23U], the self-cleavage was found to be 0.697.
The value for AACACUGCUAAUGCCGGUCCCAAGCCCGGAUAAAAGUGGAGGGAGCGG [C9U G44A] was 0.72; that for AACACUGCCAAUGCCGGUCCCAAGCCCGGAUAAAAGUGGUGGCGGCGG [A40U G43C] was 0.114; that for AACACUGCCAAUGCCGGUCCCAAGUCCGGAUAAAAGUGGUGGGGGCGG [C25U A40U] was 0.0985.
The value for AACACUGCCCAUGCCGGUCCCAAGCCCGGAUAACAGUGGAGGGGGCGG [A10C A34C] was 0.283.
Take AACACUGCCAAUGCCGGUCCCAAGCCCGGAUAAAGGAGGAGGGGGCGG [A35G U37A]: the self-cleavage stood at 0.574.
For AACACUGCCAAUGCCGGUCCCAAACCCUGAUAAAAGUGGAGGGGGCGG [G24A G28U], the self-cleavage is 0.0869.
Consider AACACUGCCAAUGCCGGUCCCGAGCCCGGAUAAAAGUGGACGGGGCGG [A22G G41C], for which the self-cleavage came out at 0.133.
The value for AACACUGCCAAUCCCGGUCCCAAGCCCAGAUAAAAGUGGAGGGGGCGG [G13C G28A] was 0.307; that for AACACUGCCAACGCCGGUACCAAGCCCGGAUAAAAGUGGAGGGGGCGG [U12C C19A] was 0.314.
As to AACACUGCCAAUGCCGGUCCCAAGCCCAGAUAAAAGUGUAGGGGGCGG [G28A G39U], the self-cleavage turned out to be 0.16.
For AAGACUGCCAAUGCCGGUCCCAAGCCCGGAUUAAAGUGGAGGGGGCGG [C3G A32U] the value was 0.593; for AACACUGCCAAUGCCGGUCCCAAGCGCGGAUAAAAUUGGAGGGGGCGG [C26G G36U], 0.0699; for AACACUGCCAAUGCCGGUCCCAAGGCCGGAUAAAAGGGGAGGGGGCGG [C25G U37G], 0.104.
The value for AACACUGUCAAUGCCGGUCCCAAGCCCGGAUAAAAGUGGAGGCGGCGG [C8U G43C] was 0.101; that for AACACUGCCAAUGCCGGUCCCAAGCCCGGAUAAAAGUGGAGGGGACGC [G45A G48C] was 1.02; that for AACACUGCCAAUGCCGGUCCCAAGCCCGGAUAAAAGUGUAGGGGGCCG [G39U G47C] was 0.16.
The value for AACACUGCCAAUGCCCGUCCCAAGCCCGGAUAAAAGUGUAGGGGGCGG [G16C G39U] was 0.144; that for AACACUGCCAAUGCCGGUCCCAAGCCCGGAUAAAGGUGGCGGGGGCGG [A35G A40C] was 0.142.
Turning to AACACUGCCAAUGCCGGUCCCAAGCCCGUGUAAAAGUGGAGGGGGCGG [G29U A30G], the self-cleavage stood at 1.
For AACACUGCCAAUGCCGGCCCGAAGCCCGGAUAAAAGUGGAGGGGGCGG [U18C C21G] the value was 0.0463; for AACACUGCCAAUGCGGGUCCCAAGCCCGGAUAAAAGUGGAGGGGGCAG [C15G G47A], 0.0633; for AAAACUGCCAAUGCCGGUCCCAAGCCCGGAUAAAAGUGGAGGGGGCUG [C3A G47U], 0.229.
The value for AACACUGCCAAUGCCGGUCCCAAGCCCGGAUAAAAGGCGAGGGGGCGG [U37G G38C] was 0.208; that for AACAUUGCCAAUGCCGGACCCAAGCCCGGAUAAAAGUGGAGGGGGCGG [C5U U18A] was 0.186; that for AACACUGCAAAUGCCGGUCCCAAGCCCGGAUAAAAGUGGAGGGGGCAG [C9A G47A] was 0.336.
The value for AACACUGCCAAUGCCGGUCCCCAGCCCGGAUAAAAGUGGAGGGGCCGG [A22C G45C] was 0.491.
As for AACACUGCCAAUGCCGGUCCCAAGUCCGAAUAAAAGUGGAGGGGGCGG [C25U G29A], the self-cleavage turned out to be 0.734.
The value for AACUCUGCCAAUGCCGGUCCCAAGCCCGGAUAAAAGUGGACGGGGCGG [A4U G41C] was 0.0883; that for AACACUGCCAAUGCCGGUCCCAAACCCGGAUAAACGUGGAGGGGGCGG [G24A A35C] was 0.102.
Turning to AACACUGCCAAUGCCGGUCCCAAGCCCUGAUAAAAGUGGAGGCGGCGG [G28U G43C], the self-cleavage was determined as 0.151.
The value for AACACUGCCAAUGUCGGUCCCAAGCCCGGAGAAAAGUGGAGGGGGCGG [C14U U31G] was 0.941.
For CACACUGCCAAUGCCGGUCCCAAGCCCGGAUAAAAGUGGAGCGGGCGG [A1C G42C] the value was 0.239.
For AAAACUCCCAAUGCCGGUCCCAAGCCCGGAUAAAAGUGGAGGGGGCGG [C3A G7C] the value was 0.0682; for AACACUGCCAAGGCCGGUCCCAAGCUCGGAUAAAAGUGGAGGGGGCGG [U12G C26U], 0.407; for AACACUGCCGAUGCCGGUCCCAAGCCCGGAUAAAAGUUGAGGGGGCGG [A10G G38U], 0.91.
In the case of AACACUGCCAAUGCCGGUUCCAAGCCCGGAUAAAGGUGGAGGGGGCGG [C19U A35G], the self-cleavage came out at 0.683.
For AAAACUGCCAAUACCGGUCCCAAGCCCGGAUAAAAGUGGAGGGGGCGG [C3A G13A] the value was 0.207; for AACAGUGCCAAUGCCGGUCCCAAGCCCGGAUAAAAGUGGAGUGGGCGG [C5G G42U], 0.0923; for AACACUGCCAAUGCCGGUCCCAAGCUGGGAUAAAAGUGGAGGGGGCGG [C26U C27G], 0.0958.
For AACACUGCGCAUGCCGGUCCCAAGCCCGGAUAAAAGUGGAGGGGGCGG [C9G A10C] the value was 0.857.
As for AACACUGCCAAUGCCGGUCCCGAGCCCGGAUAAAAGUGAAGGGGGCGG [A22G G39A], the self-cleavage turned out to be 0.101.

For the origin of these results see the RNAGym collection of RNA variant scans (doi:10.7554/elife.80360).
